Sequences and labels used below:
B1: XMA04 (antibody, V domains shown)
VH: EVQLVESGGGVVQPGRSLRLSCAASGFTFRTYAMHWVRQAPGKGLEWVAVMWNDGSNKYYADSVKGRFTISRDNSKNTLYLEMNSLRAEDTAVYYCAREGVAAAGSSSDAFDIWGQGTMVTVSS
VL: DIQMTQSPSSLSASVGDRVTITCRASQSISNFLNWYQQKPGKAPKLLIYAASSLQSGVPSRFSGSGSGTDFTLTISSLQPEDFATYYCQQSYSTLYSFGQGTKLEIK
B2: XMA09 (antibody, V domains shown)
VH: QVQLVQSGAEVKKPGSSVKVSCKASGGTFSSFAISWVRQAPGQGLEWMGGIIPIYGTANYAQKFQGRVTITADESTSTAYMDLSSLRSEDTAVYYCARDGSSTYYPHNWFDPWGQGTLVTVSS
VL: QSVLTQPPSVSGAPGQRVTISCTGSSSNIGSGYDVHWYQQLPGTAPKLLIYGNSNRPSGVPDRFSGSKSGTSASLAITGLQAEDEADYYCQSYDSSLSGVFGTGTKVTVL
B3: XMA01 (antibody, V domains shown)
VH: EVQLVESGGGLVQPGGSLRLSCSASGFTFSSYAMHWVRQAPGKGLEYVSSISSNGGSTYYADSVKGRFTISRDNSKNTLYLQMSSLRVEDAAVYYCVKHYQQQLLWGGPDVWGQGTTVTVSS
VL: DIQMTQSPVSLSASVGDRVTITCRASQSISTWLAWYQQKPGKAPKLLIYETSSLESGVPSRFSGSGSGTEFTLTISSLQPDDFATYYCQQFNSYPWTFGQGTKVEIK

In the assay the target is SARS-CoV-2 RBD protein (Severe acute respiratory syndrome …, UniProt P0DTC2). As to the kind of experiment: ELISA. (In an ELISA, binding on a coated surface is turned into a signal by an enzyme label.)
Take B1: the binding result is given as “binds”.
Next, B2: “binds”; B3: “binds”.

The record behind these values is publication PMC9080080 (Cell Reports, 2022).
